Results reported in the RNAGym collection of RNA variant scans (doi:10.1073/pnas.2313332121).

B1: TPR t1 (parent)
chain: GACCAAUCUGCCCUCAGAGCUCGAGAACAUCUUCGGAUGCAGAGGAGGCAGGCUUCGGUGGCGCGAUAGCGCCAACGUCCUCAACCUCCAAUGCAUCCCACCACAUGAUGAUGCCUGAAGAGCCUUGGUUUUUUG

Variants of: B1
Test: polymerase ribozyme fitness, log enrichment relative to wild type (log ratio); higher = more active; in vitro selection for triplet polymerase activity
How it was run: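 Only genotypes with ≥10 input reads and ≥1 read per output were kept after Illumina sequencing of input and output libraries. These libraries were PCR-built, transcribed mutants of each subunit of a heterodimeric triplet polymerase ribozyme, each put through one triplicate in vitro selection round with frozen incubation at −7 °C, gel excision of extended constructs, streptavidin-bead capture and RT-PCR. Fitness is a logarithmic ratio of genotype enrichment to wild-type enrichment, from inverse-variance-weighted replicate averages, with the logarithm in base 2.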

In order of falling “polymerase ribozyme fitness (log ratio)” value:
1. GACCAAUCUGCCCUUAGAGCUCGAGAACAUCUUCGGAUGCAGAGGAGGCAGGCUUCGGUGGCGCGAUAGCGCCAACGUCCUCAACCUCCAAUGCAUCCCACCACAUGAUGAUGCCUGAAGAGCGUUGGUUUUUUG [C15U C124G]  -0.245
2. GACCAAUCUGCCCUUAGAGCUCGAGAACAUCUUCGGAUGCAGAGGAGCCAGGCUUCGGUGGCGCGAUAGCGGCAACGUCCUCAACCUCCAAUGCAUCCCACCACAUGAUGAAGCCUGAAGAGCCUUGGUUUUUUG [C15U G48C C72G U112A]  -0.505
3. GACCAAUCUGCCCUUAGAGCUCGAGAACAUCUUCGGAUGCAGAGGAGGCAGGCCUCGGUGGCGCGAUAGCGCUAACGUCCUCAACCUCCAAUGCAUCCCACCACAUGAUGAUACCUGAAGAGCGUUGGUUUUUUG [C15U U54C C73U G113A C124G]  -0.579
4. GACCAAUCUGCCCUUAGAGCUCGAGAACAUCUUCGGAUGCAGAGGAGGCAGGCUUCGGUGUCGCGAUAGCGCCAACGUCCUCAACCUCCAAUGCAUCCCACCACAUGAUGAUGCCUGAAGAGCCUUGGUUUUUUG [C15U G61U]  -0.638
5. GACCAAUCUGCCCUUAGAGCUCGAGAACAUCUUCGCAUGCAGAGGAGGCAGGCUUCGGUGGCGCGAUAGCGCCAACGUCCUCAACCUCCAAUGCAUCCCACCACAUGAUGACGCCUGAAGAGCCUUGGUUUUUUG [C15U G36C U112C]  -1.24
6. GACCAAUCUGCCCUUAGAGCUCGAGAACAUCUUCGGAUGCAGAGGAGGCAGGCUUCGGUGGCGCGAUAUCGCCAACGUCCUCAACCUCCAAUGCAUCCCACCACAUGAUGAUGCCUGAAGAGCCUUGGUUUUUUG [C15U G69U]  -1.38
7. GACCAAUCUGCCCUUAGAGCUCGAGAACAUCUUCGGAUGCAGAGGAGGCAGGCCUCGGUGGCGCGAUAGCGUCAACGUCCUCAACCUCCAAUGCAUCCCACCACAUGAUGAUGCCUGAAGAGCCUUGGUUUUUUG [C15U U54C C72U]  -1.39
8. GACCAAUCUGCCCUUAGAGCUCGAGAACAUCUUCGGAUGCAGAGGAGACAGGCUUCGGUGGCGCGAUAGCGCCAACGUCCUCAACCUCCAAUGCAUCCCACCACAUGAUGAUGCCUGAAGAGCCUUGGUUUUUUG [C15U G48A]  -1.7
9. GACCAAUCUGCCCUUAGAGCUCGAGAACAUCUUCGAAUGCAGAGGAGGCAGGCUUCGGUGGCGCGAUAGCGCCAACGUCCUCAACCUCCAAUGCAUCCCACCACAUGAUGAUGCCUGAAGAGCCUUGGUUUUUUG [C15U G36A]  -1.76
10. GACCAAUCUGCCCUUAGAGCUCGAGAACAUCUUCGGAUGCAGAGGAGGCAGGCUUCGGUGGCCCGAUAGCGCCAACGUCCUCAACCUCCAAUGCAUCCCACCACAUGAUGAUGCCUGAAGAGCCUUGGCUUUUUG [C15U G63C U129C]  -2
11. GACCAAUCUGCCCUUAGAGCUCGAGAACAUCUUCGGAUGCAGAGGAGGCAGGCUUCGGUGGCACGAUAGCGCCAACGUCCUCAACCUCCAAUGCAUCCCACCACAUGAUGAUGCCUGAAGAGCCUUGGUUUUUUG [C15U G63A]  -2.04
12. GACCAAUCUGCCCUUAGAGCUCGAGAACAUCUUCGGAUGCAGAGGAGGCAGGCUUCGGUGCCGCGAUAGCGCCAACGUCCUCAACCUCCAAUGCAUCCCACCACAUGAUGAUGCCUGAAGAGCCUUGGUUUUUUG [C15U G61C]  -2.32
13. GACCAAUCUGCCCUUAGAGCUCGAGAACAUCUUCGGAUCCAGAGGAGGCAGGCUUCGGUGGCGCGAUAGCACCAACGUCCUCAACCUCCAAUGCAUCCCACCACAUGAUGAUGCCUGAAGAGCCUUGGUUUUUUG [C15U G39C G71A]  -2.36
14. GACCAAUCUGCCCUUAGAGCUCGAGAACAUCUUCGGAUGCAGAUGAGGCAGGCUUCGGUGGCGCGAUAGCGCCAACGUCCUCAACCUCCAAUGCAUCCCACCACAUGAUGAUGCCUGAAGAGCCUUGGUUUUUUG [C15U G44U]  -2.59
15. GACCAAUCUGCCCUUAGAGCUCGAGAACAUCUUCGGAUGCAGAUGAGGCAGGCUUCGGUGGCGCGAUAGCCCCAACGUCCUCAACCUCCAAUGCAUCCCACCACAUGAUGAUGCCUGAAGAGCCUUGGUUUUUUG [C15U G44U G71C]  -2.64
16. GACCAAUCUGCCCUUAGAGCUCGAGAACAUCUUCCGAUGCAGAGGAGGCAGGCUUCGGUGGCGCGAUAUCGCCAACGUCCUCAACCUCCAAUGCAUCCCACCACAUGAUGAUGCCUGAAGAGCCUUGGUUUUUUG [C15U G35C G69U]  -2.64
17. GACCAAUCUGCCCUUAGAGCUCGAGAACAUCUUCGGAUGCACAGGAGGCAGGCUUCGGUGGCGCGAUAGCGCCAACGUCCUCAACCUCCAAUGCAUCCCACCACAUGAUGAUGCCUGAAGAGCCUUGGUUUUUUG [C15U G42C]  -2.79
18. GACCAAUCUGCCCUUAGAGCUCGAGAACAUCUUCGGAUGCAGAGGAGGCAGGCUUCUGUGGCGCGAUAGCGGCAACGUCCGCAACCUCCAAUGCAUCCCACCACAUGAUGAUGCCUGAAGAGCCUUGGUUUUUUG [C15U G57U C72G U81G]  -2.79
19. GACCAAUCUGCCCUUAGAGCUCGAGAACAUCUUCGGAUGCAGAGGAGGCAGGCUUCGGUGCCGCGAUAGCGCCAACGUCCUCAACCUCCAAUGCAUCCCACCACAUGAUGAUGCCUGAAGAGCCAUGGUUUUUUG [C15U G61C U125A]  -2.92
20. GACCAAUCUGCCCUUAGAGCUCGAGAACAUCUUCGGAUGCAGAGGAGGCAGACUUCGGUGGCGCGAUAGCGCCAACGUCCUCAACCUCCAGUGCAUCCCACCACAUGAUGAUGCCUGAAGAGCCUUGGUUUUUUG [C15U G52A A91G]  -2.95
21. GACCAAUCUGCCCUUAGAGCUCGAGAACAUCUUCGGAUGCACAGGUGGCAGGCUUCGGUGGCGCGAUAGCGCCAACGUCCUCAACCUCCAAUGCAUCCCACCACAUGAUGAUGCCUGAAGAGCCUUGGUUUUUUG [C15U G42C A46U]  -3.23
22. GACCAAUCUGCCCUUAGAGCUCGAGAACAUCUUCGGAUGCACAGGAGGCAGGCUUCGGUGGCGCGAUAGCUCCAACGUCCUCAACCUCCAAUGCAUCCCACCACAUGAUGAUGCCUGAAGAGCCUUGGUUUUUUG [C15U G42C G71U]  -3.24
23. GACCAAUCUGCCCUUAGAGCUCGAGAACAUCCUCGGAUGCAGAGGAGGCAGGCUUCGGUGGCGCGAUAGCGCCAACGUCCUCAACCUCAAAUGCAUCCCACCACAUGAUGAUGCCUGAGGAGCCUUGCUUUUUUG [C15U U32C C89A A119G G128C]  -3.29
24. GACCAAUCUGCCCUUAGAGCUCGAGAACAUCUUCGGAUGCAGAGGAGGCAGGCUUCAGUGGCGCGAUAGCGCCAACGUCCUCAACCUCCAAUGCAUCCCACCACAUGAUGAUGCCUUAAGAGCCUUGGUUUUUUG [C15U G57A G117U]  -3.3
25. GACCAAUCUGCCCUUAGAGCUCGAGAACAUCUUCGGAUGCAGACGAGGCAGGCUUCGGUGGCGCGAUAGCGCCAACGUCCUCUACCUCCAAUGCAUCCCCCCACAUGAUGAUGCCUGAAGAGCCUUGGUUUUUUG [C15U G44C A83U A100C]  -3.3
26. GACCAAUCUGCCCUUAGAGCUCGAGAACAUCUUCGGAUGCAUACGAGGCAGGCUUCGGUGGCGCGAUAGCGCCAACGUCCUCAACCUCCAAUGUAUCCCACCACAUGAUGAUGCCUGAAGAGCCUUGGUUUUUUG [C15U G42U G44C C94U]  -3.39
27. GACCAAUCUGCCCUUAGAGCUCGAGAACAUCUUCGGAUACAGAGGAGGCAGGCUUCGGUGGCGCGAUAGCGCCAACGUCCUCAACCUCCAAUGCAUCCCACCACAUGAUGAUGCCUCAAAAGCCUUGGUUUUUUG [C15U G39A G117C G120A]  -3.48
28. GACCAAUCUGCCCUUAGAGCUCGAGAACAUCUUCGGAUGCAGAGGAGGCAGGCUUCGGUGGCUCGAUAGCGCCAACGACCUCAACCUCCAAUGCAUCCCACCACAUGAUGAUGCCUGAAGAGCCUUCGUUUUUUG [C15U G63U U78A G127C]  -4.1
29. GACCAAUCUGCCCUUAGAGCUCGAGAACAUCUUCGGAUGCACAGGAGGCAGGCUUCGGUGGCGCGAUAGCGCCAAUGUCCUCAACCUCCAAUGCAUCCCACCACAAGAUGAUGCCUGAAGAGCCUUGGUUUUUUG [C15U G42C C76U U106A]  -4.25
30. GACCAAUCUGCCCUUAGAGCUCGAGAACAUCUUCGGAUGCAGAGGAGGCAGACUUCGAUGGCGCGAUAGCGCCAACGUCCUCAACCUUCAAUGCAUCCCACCACAUGAUGAUGCUUGAAGAGCCUUGGUUUUUUG [C15U G52A G58A C88U C115U]  -4.34
31. GACCAAUCUGCCCUUAGAGCUCGAGAACAUCUUCGGAUGCAGAGGAGGCAGGCUUCGGUGGCACGAUAGCGCUAACGUCCUCAACCUCCCAUGCAUCCCACCACAUGAUUAUGCCUGAAGAGCCUUGGUUUUUUG [C15U G63A C73U A90C G110U]  -5.03
32. GACCAAUCUGCCCUUAGAGCUCGAGAACAUCUUCGGAUGCAGAGGAGGCAGGCUUCGGUGGCGCGAUAGCACCAACGUCCUCAACCUCCAAUGCAUCCCACAACAUGAUGAUGCCUGAAGAGCCUUGGUUUUUUG [C15U G71A C102A]  -5.13
33. GACCAAUCUGCCCUUAGAGCUCGAGAACAUCUUCGGAUGCAGAGGAGGCAGACUUCGGUGGCGCGAUAGCGCCAACGUCCUCAACCUCCAAUGCAUCCCACGACAUGAUGAUGCCUGAAGAGCAUUGGUUUUUUG [C15U G52A C102G C124A]  -5.21
34. GACCAAUCUGCCCUUAGAGCUCGAGAACAUCUUCGGAUGCAGAGCAAGCAGGUUUCGGAGGCGCGAUAGCGCCAACGUCCUCAACCUCCGAUGCAUCCCAUCACAUGAUGAUGCCUGAAGAGCCUUGGUUUUUUG [C15U G45C G47A C53U U59A A90G C101U]  -5.35
35. GACCAAUCUGCCCUUAGAGCUCGAGAACAUCUUCGGAUGCAGAGGAGGCAGGCUUCGGUGGCACGAUAGCGCCAACGUACUCAACCUCCAAUGCAUCCCACCACAUGAUGAGGCCUGAAGAGCCUUGGUUUUUUG [C15U G63A C79A U112G]  -5.66
36. GACCAAUCUGCCCUUAGAGCUCGAGAACAUCUUCGGAUGCAGAAGAAGCAGGCUUCGGUGGCGCGAUAGCGCCAACGUCCUCAACCUCCAAUGCAUCCCACCACUUGAUGAUGCCUGAAGAGCCUUGGUUUUUUG [C15U G44A G47A A105U]  -5.8
37. GACCAAUCUGCCCUUAGAGCUCGAGAACAUCUUCGGAUGCAGAGGAGGCAGGCUUCGGUGGCGCGAUAGCGCCAACGCCCUCCACCUCCAAUGCAUACCAACACAUGAAGAUGCCUGAAGAGCCUUGGUUUUUUG [C15U U78C A83C C97A C101A U109A]  -5.99
38. GACCAAUCUGCCCUUAGAGCUCGAGAACAUCUUCGGAUGCAGAGGAGGCAGGCUUCGGUGGCGCGAUACCGCGAACGUCCUCAACCUCCAAUGAAUCCCACCACAUGAUGCUGCCUGAAGAGCCUUGGUUUUUUG [C15U G69C C73G C94A A111C]  -6.09
39. GACCAAUCUGCCCUUAGAGCUCGAGAACAUCUUCGGAUGCAGAGGAGGCAGGCUUCGGUGGCGCGAUAGCCCCAACGUCGUCAACCUCCAAUGCAUCCCACCACAUGAUGAUGCCUGAAGAGCCUUGGUUUUUUG [C15U G71C C80G]  -6.22
40. GACCAAUCUGCCCUCCGAGCUCGAGAACAUCUUCGGAUGCAGAGGUGGCAGGCUUCGGUGGCGCGAUAGCGCCAACGUCCUCAACCUCCAAUGCAUCCCACCACAUGAUGAUGCCUAAAGAGCCUUGGUUUUGUG [A16C A46U G117A U133G]  -6.47
41. GACCAAUCUGCCCUUAGAGCUCGAGAACAUCUUCGGAUGCAGAGGAGGCAGGCUUCGGUGACGCGAUAGCGCCAACGUCCUCAACCUCAAAUGCAUCCCACCACAUGAUGUUGCCUGAAGAGCCUUGGUUUUUUG [C15U G61A C89A A111U]  -6.53
42. GACCAAUCUGCCCUUAGAGCUCAAGAACAUCUUCGGAUGCAGAGGAGGCAGGCUUCGGUGGCGCGAUAGCGCCAACGUCCUCAACCUCCAAUGCAUCCCACCACAUGAUGUUGCCUGAAGAGCCUUGGUUUUUUG [C15U G23A A111U]  -7.2
